Measurements from US20050260153, “Facilitation of iontophoresis using charged moieties” (published 2005).

Assays:
Settings in all cases: tags: 125I-labelled; chain copies: 2
[1] = molecular target: T1, VEGF165 (UniProt P15692-4 P15692-4:27-191); experiment: competition; CMC conjugates inhibit VEGF/Flt-1 binding better than non-enhanced aptamer; CMC alone no effect; values in figure
[2] = molecular target: T1, VEGF165; experiment: competition; VEGF/Flt-1 inhibition less effective than 30K linear; values in figure
[3] = molecular target: T1, VEGF165; experiment: competition; VEGF/Flt-1 inhibition more effective than 10K linear; values in figure
[4] = molecular target: T1, VEGF165; experiment: competition; VEGF/Flt-1 inhibition less effective than 20K/20K branched; values in figure
[5] = molecular target: T1, VEGF165; experiment: competition; 3'-PEG more effective than non-enhanced aptamer in inhibiting VEGF/Flt-1 binding; values in figure
[6] = molecular target: T1, VEGF165; experiment: competition; inhibits 125I-VEGF165 binding to Flt-1/Fc; much more effective than EYE002; PBS, 1 mM CaCl2, 1 mM MgCl2, 0.01% HSA, pH 7.4, 37 C; IC50 only in figure
Description: Each well is then washed with 300 μL of binding buffer (PBS with 1 mM calcium chloride, 1 mM magnesium chloride, 0.01% HSA, PH 7.4) at room temperature twice. For KDR/Fc, 0.25 picomole (85 ng) of the chimeric receptor in 100 μL of binding buffer is added into the first 11 wells, whereas the twelfth well receive 0.5 picomole (118 ng) of human ICAM-1/Fc chimera protein as the background control well. For Flt-1/Fc, 0.125 picomole (30.8 ng) of the chimeric receptor in 100 μL of binding buffer each is added into the first 11 wells, whereas the background control well (#12) receive 0.5 picomole (118 ng) of human ICAM-1/Fc chimera protein. For neuropilin-1/Fc, 0.2 picomole (48 ng) of the chimeric receptor in 100 μl of binding buffer is added to all 12 wells. The chimeric receptors and human ICAM-1/Fc protein are captured onto the well by binding to the immobilized anti-human IgG₁ Fc fragment-specific antibody in each well at room temperature for 2 to 3 hour. […]
A set of 10 five-fold dilutions of the Pegaptanib (tube #1 to #10) ranging from 1 μM (or 2 μM) to 0.512 picomolar (pM) (or 1.024 pM) are each mixed with about 0.01 μCi of ¹²⁵I-VEGF₁₆₅ in binding buffer (PBS with 1 mM calcium chloride, 1 mM Magnesium Chloride, 0.01% HSA, pH 7.4) in non-stick 1.5 mL microfuge tubes, in a total 100 μL final volume each. […] The radioactivity of each well is determined by scintillation counting.

[7] = molecular target: T1, VEGF165; experiment: competition; dextran conjugates inhibit VEGF/Flt-1 binding better than non-enhanced aptamer; dextran alone no effect; values in figure

T1 sequence (P15692 other isoform, or with tags, fused parts or gaps): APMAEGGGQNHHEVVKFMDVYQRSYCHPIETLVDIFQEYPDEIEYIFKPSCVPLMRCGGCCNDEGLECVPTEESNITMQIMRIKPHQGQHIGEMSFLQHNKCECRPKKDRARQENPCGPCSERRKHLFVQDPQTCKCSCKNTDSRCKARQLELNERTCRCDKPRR

B1: 5'-CMC VEGF aptamer conjugate (ssRNA)
RNA: CGGAAUCAGUGAAUGCUUAUACAUCCG
modifications: 2'-F on C and U, 2'-OMe on G and A except unmodified ribo A at positions 4 and 5; 5'-carboxymethyl cellulose (about 50 kDa)
binding result [1]: binds

B2: 10K linear PEG VEGF aptamer conjugate (ssRNA)
RNA: CGGAAUCAGUGAAUGCUUAUACAUCCG
modifications: 2'-F on C and U, 2'-OMe on G and A except unmodified ribo A at positions 4 and 5; PEG 10K linear
binding result [2]: binds

B3: 30K linear PEG VEGF aptamer conjugate (ssRNA)
RNA: CGGAAUCAGUGAAUGCUUAUACAUCCG
modifications: 2'-F on C and U, 2'-OMe on G and A except unmodified ribo A at positions 4 and 5; PEG 30K linear
binding result [3]: binds

B4: 5K/5K branched PEG VEGF aptamer conjugate (ssRNA)
RNA: CGGAAUCAGUGAAUGCUUAUACAUCCG
modifications: 2'-F on C and U, 2'-OMe on G and A except unmodified ribo A at positions 4 and 5; PEG 5K/5K branched
binding result [4]: binds

B5: 3'-PEG VEGF aptamer conjugate (ssRNA)
RNA: CGGAAUCAGUGAAUGCUUAUACAUCCG
modifications: 2'-F on C and U, 2'-OMe on G and A except unmodified ribo A at positions 4 and 5; 3'-PEG
binding result [5]: binds

B6: Pegaptanib (EYE001, Macugen, MacI; 20K/20K branched 5'-PEG VEGF aptamer) (ssRNA)
RNA: CGGAAUCAGUGAAUGCUUAUACAUCCG
modifications: 2'-F on C and U, 2'-OMe on G and A except unmodified ribo A at positions 4 and 5; 5'-PEG 40 kDa branched via amino linker; 3'-3' dT cap
binding result [6]: binds

B7: 5'-dextran VEGF aptamer conjugate (ssRNA)
RNA: CGGAAUCAGUGAAUGCUUAUACAUCCG
modifications: 2'-F on C and U, 2'-OMe on G and A except unmodified ribo A at positions 4 and 5; 5'-dextran (e.g. 40 kDa)
binding result [7]: binds
